Reference: the RNAGym collection of RNA variant scans (doi:10.7554/elife.80360)

B1: HDV Ribozyme (parent)
chain: GGCCGGCAUGGUCCCAGCCUCCUCGCUGGCGCCGGCUGGGCAACAUUCCGAGGGGACCGUCCCCUCGGUAAUGGCGAAUGGGACCCA

Variants of: B1
Assay: self-cleavage, relative activity (ratio to wild type); higher = more cleavage; co-transcriptional
Variant GGCCGGCAUGGUCCUAGCCUCCUCGCUGGCGCCGGCUGGGCAACAUUCCGAGGGGACCGUCCCCUCGGUAAUGGCGAAUGGGUCCCA has a self-cleavage of 0.26. With GGCCGGCAUGGUCCUAGCCUCCUCGCUGGCGCCGGCUGGGCAACAUUCCGAGGGGACCGUCCCCUCGGUAAUGGCGAAUGGGGCCCA the self-cleavage was 0.45. Variant GGCCGGCAUGGUCCCCGCCUCCUCGCUGGCGCCGGCUGGGCAACAUUCCGAGGGGACCGUCCCCUCGGUAAUGGCGAAUGGGGCCCA has a self-cleavage of 0.877. With GGCCGGCAUGGUCCUAGCCUCCUCGCUGGCGCCGGCUGGGCAACAUUCCGAGGGGACCGUCCCCUCGGUAAGGGCGAAUGGGACCCA the self-cleavage was 0.665. In the case of GGCCGGCAUGGUCCUAGCCUGCUCGCUGGCGCCGGCUGGGCAACAUUCCGAGGGGACCGUCCCCUCGGUAAUGGCGAAUGGGACCCA, the self-cleavage is reported as 0.0898. Work on GGCCGGCAUGGUCCUAGCCUCCUCGCUGGCGCCGGCUGGGCAACAUUCCGAGGGAACCGUCCCCUCGGUAAUGGCGAAUGGGACCCA yielded a self-cleavage of 0.889. GGCCGGCAUGGUCCUAGCCUCCUCGCUGGCGCCGGCUGGGCAACAUUCCGAGGGCACCGUCCCCUCGGUAAUGGCGAAUGGGACCCA showed a self-cleavage of 0.895. Variant GGCCGGCAUGGUCCCCGCCUCCUCGCUGGCGCCGGCUGGGCAACAUUCGGAGGGGACCGUCCCCUCGGUAAUGGCGAAUGGGACCCA has a self-cleavage of 0.923. With GGCCGGCAUGGUCCCCGCCUCCUCGCUGGCGCCGGCUGGGCAACAUUCUGAGGGGACCGUCCCCUCGGUAAUGGCGAAUGGGACCCA the self-cleavage was 0.617. With GGCCGGCAUGGUCCCCGCCUCCUCGCUGGCGCCGGCUGGGCAACAUUCAGAGGGGACCGUCCCCUCGGUAAUGGCGAAUGGGACCCA the self-cleavage was 0.609. GGCCGGCAUGGUCCUAGUCUCCUCGCUGGCGCCGGCUGGGCAACAUUCCGAGGGGACCGUCCCCUCGGUAAUGGCGAAUGGGACCCA showed a self-cleavage of 0.44. GGCCGGCAUGGUCCUAGCCUCCUCGCUGGCGCCGGCUGGGCAAUAUUCCGAGGGGACCGUCCCCUCGGUAAUGGCGAAUGGGACCCA gave a self-cleavage of 0.707. In the case of GGCCGGCAUGGUCCUAGCCUCCUCGCUGGCGCCGGCUGGGCAACAUUCCGAGGGGACCGUCCCCUCGGUAAUGGCGACUGGGACCCA, the self-cleavage is reported as 0.166. Work on GGCCGGCAUGGUCCUAGCCUCCUCGCUGGCGCCGGCUGGGCAACAUUCCGAGGAGACCGUCCCCUCGGUAAUGGCGAAUGGGACCCA yielded a self-cleavage of 0.776. GGCCGGCAUGGUCCUAGCCUCCUCGCUGGCGCCGGCUGGGCAACAUUCCGAGGCGACCGUCCCCUCGGUAAUGGCGAAUGGGACCCA showed a self-cleavage of 1. Work on GGCCGGCAUGGUCCCCGCCUGCUCGCUGGCGCCGGCUGGGCAACAUUCCGAGGGGACCGUCCCCUCGGUAAUGGCGAAUGGGACCCA yielded a self-cleavage of 0.119. Variant GGCCGGCAUGGUCCCCGCCUACUCGCUGGCGCCGGCUGGGCAACAUUCCGAGGGGACCGUCCCCUCGGUAAUGGCGAAUGGGACCCA has a self-cleavage of 0.0437. GGCCGGCAUGGUCCCCGCCUUCUCGCUGGCGCCGGCUGGGCAACAUUCCGAGGGGACCGUCCCCUCGGUAAUGGCGAAUGGGACCCA showed a self-cleavage of 0.199. With GGCCGGCAUGGUCCUAGCCUCCUCGCUGGCGCCGGCUGGGCAACAUUCCGAGGGGACCGUCCCCUCGGGAAUGGCGAAUGGGACCCA the self-cleavage was 0.858. In the case of GGCCGGCAUGGUCCCCGCCUCGUCGCUGGCGCCGGCUGGGCAACAUUCCGAGGGGACCGUCCCCUCGGUAAUGGCGAAUGGGACCCA, the self-cleavage is reported as 0.0426. With GGCCGGCAUGGUCCUAGCCUCCUCGCUGGCGCCCGCUGGGCAACAUUCCGAGGGGACCGUCCCCUCGGUAAUGGCGAAUGGGACCCA the self-cleavage was 0.268. For GGCCGGCAUGGUCCUAGCCUCCUCGCUGGCGCCUGCUGGGCAACAUUCCGAGGGGACCGUCCCCUCGGUAAUGGCGAAUGGGACCCA, the self-cleavage was 0.293. GGCCGGCAUGGUCCUAGCCUCCUCGCUGGCGCCGGCUGGGCAACAUUCCGAGGGGACCGUCCCCUCGGUAAUCGCGAAUGGGACCCA gave a self-cleavage of 0.429. Work on GGCCGGCAUGGUCCUAGCCUCCUCGCUGGCGCCGGCUGGGCAACAUUCCGAGGGGACCGUCCCCUCGGUAAUAGCGAAUGGGACCCA yielded a self-cleavage of 0.302. For GGCCGGCAUGGUCCUAGCCUCCUCGCUGUCGCCGGCUGGGCAACAUUCCGAGGGGACCGUCCCCUCGGUAAUGGCGAAUGGGACCCA, the self-cleavage was 0.0594. Work on GGCCGGCAUGGUCCUAGCCUCCUCGCUGACGCCGGCUGGGCAACAUUCCGAGGGGACCGUCCCCUCGGUAAUGGCGAAUGGGACCCA yielded a self-cleavage of 0.154. Variant GGCCGGCAUGGUCCCCGCCUCCUCGCUGGCGCCGGCUGGGCAGCAUUCCGAGGGGACCGUCCCCUCGGUAAUGGCGAAUGGGACCCA has a self-cleavage of 0.138. With GGCCGGCAUGGUCCUAGCCUCCUCGCUGGCCCCGGCUGGGCAACAUUCCGAGGGGACCGUCCCCUCGGUAAUGGCGAAUGGGACCCA the self-cleavage was 0.208. For GGCCGGCAUGGUCCUAGCCUCCUCGCUGGCUCCGGCUGGGCAACAUUCCGAGGGGACCGUCCCCUCGGUAAUGGCGAAUGGGACCCA, the self-cleavage was 0.248. For GGCCGGCAUGGUCCUAGCCUCCUCGCUGGCGCCGGCUGGGCAACCUUCCGAGGGGACCGUCCCCUCGGUAAUGGCGAAUGGGACCCA, the self-cleavage was 0.277. With GGCCGGCAUGGUCCUAGCCUCCUCGCUGGCGCCGGCUGGGCAGCAUUCCGAGGGGACCGUCCCCUCGGUAAUGGCGAAUGGGACCCA the self-cleavage was 0.138. In the case of GGCCGGCAUGGUCCUAGCCUCCUCGCUGGCGCCGGCUGGGCAACAUUCCGAGGGGACCGUGCCCUCGGUAAUGGCGAAUGGGACCCA, the self-cleavage is reported as 0.898. GGCCGGCAUGGUCCUAGCCUCCUCGCUGGCGCCGGCUGGGCAACAUUCCGAUGGGACCGUCCCCUCGGUAAUGGCGAAUGGGACCCA gave a self-cleavage of 1.21. GGCCGGCAUGGUCCUAGCCUCCUCGCUGGCGCCGGCUGGGCAACAUUCCGACGGGACCGUCCCCUCGGUAAUGGCGAAUGGGACCCA gave a self-cleavage of 1.03. With GGCCGGCAUGGUCCUAGCCUCCUCGAUGGCGCCGGCUGGGCAACAUUCCGAGGGGACCGUCCCCUCGGUAAUGGCGAAUGGGACCCA the self-cleavage was 1.05. Variant GGCCGGCAUGGUCCCCGCUUCCUCGCUGGCGCCGGCUGGGCAACAUUCCGAGGGGACCGUCCCCUCGGUAAUGGCGAAUGGGACCCA has a self-cleavage of 0.266. GGCCGGCAUGGUCCCCGCCUCCUCGCUGGCGCCGGCUGGGCAACAUUCCGAGGGGACCGUCCCCUCGGUAAUGGCGACUGGGACCCA gave a self-cleavage of 0.166. Variant GGCCGGCAUGGUCCCCGCCUCCUCGCUGGCGCCGGCUGGGCAACAUUCCGAGGGGACCGUCCCCUCGGUAAUGGCGAUUGGGACCCA has a self-cleavage of 0.256. Work on GGCCGGCAUGGUCCUAGCCUCCUCGCUGGCGCCGGCUGCGCAACAUUCCGAGGGGACCGUCCCCUCGGUAAUGGCGAAUGGGACCCA yielded a self-cleavage of 0.0639. GGCCGGCAUGGUCCUAGCCUCCUCGCUGGCGCCGGCUGAGCAACAUUCCGAGGGGACCGUCCCCUCGGUAAUGGCGAAUGGGACCCA gave a self-cleavage of 0.151. Work on GGCCGGCAUGGUCCCCGUCUCCUCGCUGGCGCCGGCUGGGCAACAUUCCGAGGGGACCGUCCCCUCGGUAAUGGCGAAUGGGACCCA yielded a self-cleavage of 0.375. Variant GGCCGGCAUGGUCCUAGCCUCCUCGCUGGCGCCGGCUGGGCAACAUUCCGAGGGGACCGUCCCCUCGGUAAUGGCGCAUGGGACCCA has a self-cleavage of 0.185. In the case of GGCCGGCAUGGUCCCCGCCUCCUCGCUGGCGCCGGCUGGGCAACAUUCCGAGGGGACCGUCCCCUCGGUCAUGGCGAAUGGGACCCA, the self-cleavage is reported as 0.731. With GGCCGGCAUGGUCCCCGCCUCCUCGCUGGCGCCGGCUGGGCAACAUUACGAGGGGACCGUCCCCUCGGUAAUGGCGAAUGGGACCCA the self-cleavage was 0.987. GGCCGGCAUGGUCCUAGCCUCCUCGCUGGCGCCGGCUGGGCAACAUUCCGAGAGGACCGUCCCCUCGGUAAUGGCGAAUGGGACCCA showed a self-cleavage of 0.912. With GGCCGGCAUGGUCCUAGCCUCCUUGCUGGCGCCGGCUGGGCAACAUUCCGAGGGGACCGUCCCCUCGGUAAUGGCGAAUGGGACCCA the self-cleavage was 0.717. GGCCGGCAUGGUCCCCGCCUCCUCGCUGGCGCCGGCUGGGCCACAUUCCGAGGGGACCGUCCCCUCGGUAAUGGCGAAUGGGACCCA gave a self-cleavage of 0.192. GGCCGGCAUGGUCCCCGCCUCCUCGCUGGCGCCGGCUGGGCAACAUUCCGAGGGGAACGUCCCCUCGGUAAUGGCGAAUGGGACCCA showed a self-cleavage of 0.852. Variant GGCCGGCAUGGUCCUAGCCUCCUCGCUGGCGCCGGCUGGGCAACAUUCCGAGGGGACCGUCCCCUCGGUAAUGGCGAAUGGGACACA has a self-cleavage of 0.962. With GGCCGGCAUGGUCCUAGCCUCCUCGCUGGCGCCGGCUGGGCAACAUUCCGAGGGGACCGUCCCCUCGGUAAUGGCGAAUGGGACUCA the self-cleavage was 0.906. GGCCGGCAUGGUCCUAGCCUCCUCGCUGGCGCCGGCUGGGCAACAUUCCGAGGGGACCGUCCCCUCGGUAAUGGCUAAUGGGACCCA showed a self-cleavage of 1.2. With GGCCGGCAUGGUCCUAGCCUCCUCGCUGGGGCCGGCUGGGCAACAUUCCGAGGGGACCGUCCCCUCGGUAAUGGCGAAUGGGACCCA the self-cleavage was 0.0707. GGCCGGCAUGGUCCUAGCUUCCUCGCUGGCGCCGGCUGGGCAACAUUCCGAGGGGACCGUCCCCUCGGUAAUGGCGAAUGGGACCCA gave a self-cleavage of 0.0767. GGCCGGCAUGGUCCUAGCGUCCUCGCUGGCGCCGGCUGGGCAACAUUCCGAGGGGACCGUCCCCUCGGUAAUGGCGAAUGGGACCCA gave a self-cleavage of 0.0997. For GGCCGGCAUGGUCCUAUCCUCCUCGCUGGCGCCGGCUGGGCAACAUUCCGAGGGGACCGUCCCCUCGGUAAUGGCGAAUGGGACCCA, the self-cleavage was 0.415. GGCCGGCAUGGUCCUAGCCUCCUCGCUAGCGCCGGCUGGGCAACAUUCCGAGGGGACCGUCCCCUCGGUAAUGGCGAAUGGGACCCA showed a self-cleavage of 0.0692. GGCCGGCAUGGUCCUAGCCUCCUCGCUGGCGCCGGCUGGGCAACAUUCCGAGGGGACCGUCCCCUCGGUAAUGGCGAACGGGACCCA gave a self-cleavage of 0.849. Variant GGCCGGCAUGGUCCUAGCCUCCUCGCUGGCGCCGGCUGGGCAACAUUCCGAGGGGACCGUCCCCUCGGUAAUGGCGAAAGGGACCCA has a self-cleavage of 1.11. For GGCCGGCAUGGUCCCCGCCUCCUCGAUGGCGCCGGCUGGGCAACAUUCCGAGGGGACCGUCCCCUCGGUAAUGGCGAAUGGGACCCA, the self-cleavage was 0.831. GGCCGGCAUGGUCCCCGCCUCCUCGUUGGCGCCGGCUGGGCAACAUUCCGAGGGGACCGUCCCCUCGGUAAUGGCGAAUGGGACCCA showed a self-cleavage of 0.886. GGCCGGCAUGGUCCUAGCCUCCUCGCUGGCGCCGGAUGGGCAACAUUCCGAGGGGACCGUCCCCUCGGUAAUGGCGAAUGGGACCCA showed a self-cleavage of 0.208. Variant GGCCGGCAUGGUCCCCGCCUCCUCGCUGGCGCCGGCUGGGCAACAUUCCGAGGGGACCGUCCCCUCGGUAAUGGCGAAUGGGACCCG has a self-cleavage of 0.769. Variant GGCCGGCAUGGUCCUAGCCUCCUCGCUGGCGCCGGCUGGGCAACAUUCUGAGGGGACCGUCCCCUCGGUAAUGGCGAAUGGGACCCA has a self-cleavage of 0.997. Variant GGCCGGCAUGGUCCUAGCCUCCUCGCUGGCGCCGGCUGGGCAACAUUCCGAGGGGACCGUCCCAUCGGUAAUGGCGAAUGGGACCCA has a self-cleavage of 0.636.
